Our source for the Kd, koff and kon values is patent US20190359732A1.

For orientation: Kd means the equilibrium constant for the complex coming apart. Low values mean tighter binding, high ones weaker binding. By koff is commonly meant the first-order rate constant of dissociation. Higher therefore signals fast dissociation. Broadly, the kon is a measure of how fast the partners come together.

In this assay the target is antigen CD3 (Biacore analysis) (Homo sapiens (Human)) (UniProt P07766). Briefly: SPR (Biacore). (SPR reads the build-up and loss of mass on a sensor chip optically.)

B1: huOKT3 IgG1-aGlyco (antibody, V domains shown)
VH: QVQLVQSGGGVVQPGRSLRLSCKASGYTFTRYTMHWVRQAPGKGLEWIGYINPSRGYTNYNQKFKDRFTISRDNSKNTAFLQMDSLRPEDTGVYFCARYYDDHYCLDYWGQGTPVTVSS
VL: DIQMTQSPSSLSASVGDRVTITCSASSSVSYMNWYQQTPGKAPKRWIYDTSKLASGVPSRFSGSGSGTDYTFTISSLQPEDIATYYCQQWSSNPFTFGQGTKLQITR
B1 came in with a Kd of 64.6 nM, a koff of 0.109 s⁻¹ and a kon of 1.68e+06 M⁻¹ s⁻¹.
